Key:
[1] = target: recombinant N2 (neuraminidase subtype 2 head domain of A/Kansas/14/2017 (H3N2) fused to the tetrabrachion tetramerization domain) (not stated | influenza A virus A/Kansas/14/2017 (H3N2)) (UniProt Q54436); assay: SEC-MALS; AdvanceBio SEC 300-Å column connected to a DAWN8 detector, 0.3 ml/min, PBS pH 7.2
[2] = target: recombinant N2 (neuraminidase subtype 2 head domain of A/Kansas/14/2017 (H3N2) fused to the tetrabrachion tetramerization domain) (not stated | influenza A virus A/Kansas/14/2017 (H3N2)) (UniProt Q54436); assay: SEC
[3] = target: recombinant N1 (neuraminidase subtype 1 head domain of A/Brisbane/02/2018 (H1N1) fused to the tetrabrachion tetramerization domain) (not stated | influenza A virus A/Brisbane/02/2018 (H1N1)) (UniProt Q54436); assay: SEC-MALS; AdvanceBio SEC 300-Å column connected to a DAWN8 detector, 0.3 ml/min, PBS pH 7.2
[4] = target: recombinant N1 (neuraminidase subtype 1 head domain of A/Brisbane/02/2018 (H1N1) fused to the tetrabrachion tetramerization domain) (not stated | influenza A virus A/Brisbane/02/2018 (H1N1)) (UniProt Q54436); assay: SEC

Substance	stoichiometry N [1]	stoichiometry N [2]	stoichiometry N [3]	stoichiometry N [4]
recombinant N2 (neuraminidase subtype 2 head domain of A/Kansas/14/2017 (H3N2) fused to the tetrabrachion tetramerization domain) (from UniProt Q54436 1238-1286) (enzyme)	4	4	–	–
recombinant N1 (neuraminidase subtype 1 head domain of A/Brisbane/02/2018 (H1N1) fused to the tetrabrachion tetramerization domain) (from UniProt Q54436 1238-1286) (enzyme)	–	–	4	4
